The values below come from patent publication US20040058369A1.

The assay concerns the target αRXR co-transfected into HEK293 cells. The assay can be described thus: cell-based or functional assay.

“Heliothis virescens ecdysone receptor (HEcR) as expressed from effector plasmid pcDNA3H3KHEcR” had an induction of reporter activity in HEK293 cells co-transfected with αRXR, effector and reporter, compared to the untreated cells of 9 fold; a reporter activity with αRXR co-transfected, compared to cells transfected with effector and reporter alone of 4 fold.
